Source: patent US9549967B2, “Regulation of sodium channels by PLUNC proteins” (The University of North Carolina at Chapel Hill, priority 2009, dated 2017)

B1: SPLUNC1: human SPLUNC1, 256 amino acid secreted PLUNC protein (SEQ ID NO:1); rSPLUNC1 = V5/6His-tagged protein purified from HEK293 media (protein, listed as Homo sapiens)
chain: MFQTGGLIVFYGLLAQTMAQFGGLPVPLDQTLPLNVNPALPLSPTGLAGSLTNALSNGLLSGGLLGILENLPLLDILKPGGGTSGGLLGGLLGKVTSVIPGLNNIIDIKVTDPQLLELGLVQSPDGHRLYVTIPLGIKLQVNTPLVGASLLRLAVKLDITAEILAVRDKQERIHLVLGDCTHSPGSLQISLLDGLGPLPIQGLLDSLTGILNKVLPELVQGNVCPLVNEVLRGLDITLVHDIVNMLIHGLQFVIKV
modifications: V5/6His tag
notes: rSPLUNC1 = V5/6His-tagged protein purified from HEK293 media

Molecular target: T1, ENaC (Homo sapiens, UniProt P37088+P51168+P51170)
T1 construct: endogenous in cells; host or cells: primary human bronchial epithelial cultures
T1 sequence (P37088 1-669): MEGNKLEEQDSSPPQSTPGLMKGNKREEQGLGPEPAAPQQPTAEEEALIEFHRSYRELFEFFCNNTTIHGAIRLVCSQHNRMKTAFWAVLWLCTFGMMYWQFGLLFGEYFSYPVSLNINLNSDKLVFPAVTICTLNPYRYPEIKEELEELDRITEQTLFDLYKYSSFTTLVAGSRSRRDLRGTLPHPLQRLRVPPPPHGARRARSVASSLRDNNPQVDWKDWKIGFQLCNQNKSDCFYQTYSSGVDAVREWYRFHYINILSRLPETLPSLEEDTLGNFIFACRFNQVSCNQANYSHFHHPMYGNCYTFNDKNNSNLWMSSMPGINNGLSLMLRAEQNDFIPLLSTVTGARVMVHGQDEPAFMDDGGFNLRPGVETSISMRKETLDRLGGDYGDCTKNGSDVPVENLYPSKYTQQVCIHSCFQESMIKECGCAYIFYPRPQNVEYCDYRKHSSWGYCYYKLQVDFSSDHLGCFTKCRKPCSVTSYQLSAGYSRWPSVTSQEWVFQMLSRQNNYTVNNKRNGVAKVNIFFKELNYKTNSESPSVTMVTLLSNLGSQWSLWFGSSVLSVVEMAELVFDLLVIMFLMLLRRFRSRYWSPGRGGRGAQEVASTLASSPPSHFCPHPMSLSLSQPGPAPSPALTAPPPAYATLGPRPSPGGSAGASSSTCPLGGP
T1 sequence (P51168 1-640): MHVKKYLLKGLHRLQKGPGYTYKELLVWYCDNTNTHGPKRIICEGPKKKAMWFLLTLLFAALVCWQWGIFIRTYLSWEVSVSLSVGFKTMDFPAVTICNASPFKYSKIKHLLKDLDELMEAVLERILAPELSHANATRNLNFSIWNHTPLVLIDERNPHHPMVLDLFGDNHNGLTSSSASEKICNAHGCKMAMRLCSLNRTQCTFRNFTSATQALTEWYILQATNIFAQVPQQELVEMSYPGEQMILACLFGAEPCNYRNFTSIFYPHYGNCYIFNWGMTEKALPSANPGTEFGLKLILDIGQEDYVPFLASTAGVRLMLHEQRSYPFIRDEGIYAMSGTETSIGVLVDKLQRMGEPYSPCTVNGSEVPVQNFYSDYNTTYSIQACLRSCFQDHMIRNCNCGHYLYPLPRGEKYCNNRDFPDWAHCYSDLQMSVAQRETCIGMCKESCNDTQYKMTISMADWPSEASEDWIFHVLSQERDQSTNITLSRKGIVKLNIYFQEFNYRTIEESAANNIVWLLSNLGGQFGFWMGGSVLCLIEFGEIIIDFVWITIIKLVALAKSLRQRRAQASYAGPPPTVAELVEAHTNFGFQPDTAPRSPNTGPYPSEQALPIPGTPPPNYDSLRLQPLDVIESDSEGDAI
T1 sequence (P51170 1-649): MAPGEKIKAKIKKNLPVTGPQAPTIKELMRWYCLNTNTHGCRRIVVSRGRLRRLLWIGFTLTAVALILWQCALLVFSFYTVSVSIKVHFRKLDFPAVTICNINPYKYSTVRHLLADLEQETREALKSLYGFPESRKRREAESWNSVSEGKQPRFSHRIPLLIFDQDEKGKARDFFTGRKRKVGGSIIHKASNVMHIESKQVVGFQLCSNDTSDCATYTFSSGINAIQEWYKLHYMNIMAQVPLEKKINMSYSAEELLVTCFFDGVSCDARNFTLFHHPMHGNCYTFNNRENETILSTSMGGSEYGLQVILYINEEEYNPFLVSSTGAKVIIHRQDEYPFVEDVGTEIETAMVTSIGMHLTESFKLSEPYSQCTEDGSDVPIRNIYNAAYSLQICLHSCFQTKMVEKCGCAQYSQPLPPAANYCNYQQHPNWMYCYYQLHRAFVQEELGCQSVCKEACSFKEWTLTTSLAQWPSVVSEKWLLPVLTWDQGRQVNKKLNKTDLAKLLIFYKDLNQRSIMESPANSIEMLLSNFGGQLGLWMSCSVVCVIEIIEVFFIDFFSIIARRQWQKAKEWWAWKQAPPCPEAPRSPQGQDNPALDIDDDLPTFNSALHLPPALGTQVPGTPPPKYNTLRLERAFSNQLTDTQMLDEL
Assay: Transepithelial voltage under thin film conditions in human bronchial epithelial cultures (microelectrode)
Format: cell-based
Excerpt: Tissue procurement and cell culture: Cells were harvested by enzymatic digestion from human bronchial tissue as previously described under a protocol approved by the UNC School of Medicine IRB (Tarran et al., J. Gen. Physiol. 127:591 (2006)). Human excess donor lungs and excised recipient lungs were obtained at the time of lung transplantation from portions of main stem or […] bronchi and cells were harvested by enzymatic digestion. All preparations were maintained at an air-liquid interface in a modified bronchial epithelial medium and used 2-5 weeks after seeding on 12 mm T-Clear inserts (Corning Costar) coated with human placental type VI collagen (Sigma). Phosphate buffered saline (PBS) was used for washing human bronchial epithelial culture mucosal surfaces.
Microelectrode studies. A single-barreled potential difference-sensing electrode was placed in the airway surface liquid by micromanipulator and used in conjunction with a macroelectrode in the serosal solution to measure transepithelial voltage using a voltmeter (World Precision Instruments). […] Transepithelial resistance was routinely measured using the EVOM system (WPI) as previously described (Tarran et al., J. Gen. Physiol. 127:591 (2006)).

Molecule | transepithelial voltage after mucosal trypsin (SPLUNC1-exposed group, trypsin for 30 min after 1 h rSPLUNC1 exposure) | transepithelial voltage after mucosal trypsin (control cultures, trypsin for 30 min) | regulation of the transepithelial voltage (SPLUNC1 knockdown cultures, 50 ng/ml rSPLUNC1 added to airway surface liquid) | transepithelial voltage (cultures not pre-washed, airway surface liquid accumulated for 24 h) | onset of inhibition (human bronchial epithelial cultures, FIG. 2C, 2D) | rate of inhibition of the transepithelial voltage (rSPLUNC1 vs aprotinin addition, effects not additive) | transepithelial voltage, addition to amiloride-treated cultures (same amiloride-treated cultures, n=12) | transepithelial voltage (washed cultures, 20 μl Ringer containing 50 ng/ml rSPLUNC1)
trypsin [reference compound] | significantly raised the transepithelial voltage | without effect | – | – | – | – | – | –
B1 | – | – | restored | without further effect | 30 to 60 min | identical rates | without further effect | significantly reduced the transepithelial voltage
